The values that follow come from publication PMC8409457 (2021).

Test [1] deals with T1, Bcl-2 (UniProt P10415 1-239). In words: SPR.
For test [2], the target named is T1, Bcl-2. The test is described as follows: FP.
Test [3] addresses MDM2 (UniProt Q00987 1-491). The test is described as follows: FP; reduced.

Bridges are numbered along the chain shown (N, C = ends). Where no end group is shown, it is not given here.

T1 sequence (P10415 whole entry): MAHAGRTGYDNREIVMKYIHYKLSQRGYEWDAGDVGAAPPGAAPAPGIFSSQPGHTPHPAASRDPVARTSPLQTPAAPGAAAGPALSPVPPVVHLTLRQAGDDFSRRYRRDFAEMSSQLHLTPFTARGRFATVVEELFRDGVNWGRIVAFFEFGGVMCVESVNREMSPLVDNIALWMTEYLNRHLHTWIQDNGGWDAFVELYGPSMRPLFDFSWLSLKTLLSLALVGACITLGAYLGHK
Sequence of MDM2 (Q00987 whole entry): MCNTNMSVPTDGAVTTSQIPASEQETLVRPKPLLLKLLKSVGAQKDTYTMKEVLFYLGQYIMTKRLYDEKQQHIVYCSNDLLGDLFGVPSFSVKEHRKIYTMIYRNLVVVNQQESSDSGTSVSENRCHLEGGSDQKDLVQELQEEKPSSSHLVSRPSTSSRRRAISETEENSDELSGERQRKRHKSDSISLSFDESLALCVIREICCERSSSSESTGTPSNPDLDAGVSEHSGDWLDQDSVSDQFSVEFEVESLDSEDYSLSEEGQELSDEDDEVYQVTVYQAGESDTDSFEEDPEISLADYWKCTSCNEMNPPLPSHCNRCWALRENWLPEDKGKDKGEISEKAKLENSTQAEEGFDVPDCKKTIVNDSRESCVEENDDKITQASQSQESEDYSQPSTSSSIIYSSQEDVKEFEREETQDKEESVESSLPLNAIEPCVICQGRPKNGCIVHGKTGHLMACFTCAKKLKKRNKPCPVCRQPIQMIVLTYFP

B1: oxidized peptide 16 (peptide)
chain: GCMILLDTDIWCPCSHPYACPENICC
modifications: disulfide 12-26 (inferred); disulfide 14-20, 2-25
B1: the koff in test [1] was 0.0498 s⁻¹. For the same molecule, the Ki in test [2] was 770 nM.

B2: reduced linear peptide 15 (peptide)
chain: GCEKATESESPCPCIFPELCPWIVCC
modifications: cysteines reduced (no disulfide bonds)
In test [3], B2 showed a Ki of 1120 nM.

Broadly, the koff is the rate constant with which the complex falls apart. Read a high koff as a short-lived complex. Broadly, the Ki is the equilibrium dissociation constant of an inhibitor or competing ligand from its target. Lower therefore signals a stronger hold on the target.
